Reference: article PMC10177266, “Interaction between Human Papillomavirus-Encoded E6 Protein and AurB Induces Cell Immortalization and Proliferation—A Potential Target of Intervention” (Cancers, 2023)

B1: Flag-tagged Aurora kinase B (enzyme)
chain: MAQKENSYPWPYGRQTAPSGLSTLPQRVLRKEPVTPSALVLMSRSNVQPTAAPGQKVMENSSGTPDILTRHFTIDDFEIGRPLGKGKFGNVYLAREKKSHFIVALKVLFKSQIEKEGVEHQLRREIEIQAHLHHPNILRLYNYFYDRRRIYLILEYAPRGELYKELQKSCTFDEQRTATIMEELADALMYCHGKKVIHRDIKPENLLLGLKGELKIADFGWSVHAPSLRRKTMCGTLDYLPPEMIEGRMHNEKVDLWCIGVLCYELLVGNPPFESASHNETYRRIVKVDLKFPASVPMGAQDLISKLLRHNPSERLPLAQVSAHPWVRANSRRVLPPSALQSVA
notes: Aurora kinase B, human, from pcDNA:Flag-Aurora kinase B; the functional rows use this molecule for that purified protein; also called FL-AurB; Flag-AurB; source: in vitro translated (TNT Coupled Reticulocyte Lysate System, Promega)

Legend:
Assay in all cases: pull-down; purified GST fusion proteins on glutathione agarose incubated with in vitro-translated Flag-AurB for 1 h at room temperature; washed thrice with PBS with 0.1% Tween 20; bound AurB detected by western blot, quantitated with ImageJ and normalized to the GST fusion protein
[1] = biological target: GST-HPV16 E6 with its C-terminus PDZ binding motif depleted (E6ΔPBM) (human papillomavirus type 16) (UniProt P03126)
[2] = biological target: T1, GST-HPV16 E6 S145A (human papillomavirus type 16, UniProt P03126 1-158, S145A); details: one partner purified
T1 construct: E6 oncoprotein of human papillomavirus type 16 with S145A; source: E. coli, purified on glutathione-conjugated agarose resin

[3] = biological target: T2, GST-HPV16 E6 S150A (human papillomavirus type 16, UniProt P03126 1-158, S150A); details: one partner purified
T2 construct: E6 oncoprotein of human papillomavirus type 16 with S150A; source: E. coli, purified on glutathione-conjugated agarose resin

[4] = biological target: T3, GST-HPV16 E6 S89A (human papillomavirus type 16, UniProt P03126 1-158, S89A); details: one partner purified
T3 construct: E6 oncoprotein of human papillomavirus type 16 with S89A; source: E. coli, purified on glutathione-conjugated agarose resin

[5] = biological target: T4, GST-HPV16 E6 T140A (human papillomavirus type 16, UniProt P03126 1-158, T140A); details: one partner purified
T4 construct: E6 oncoprotein of human papillomavirus type 16 with T140A; source: E. coli, purified on glutathione-conjugated agarose resin

| Molecule | fold of bound AurB against E6 wild type [1] [fold] | bound AurB, percent of E6 wild type [2] [%] | bound AurB, percent of E6 wild type [3] [%] | bound AurB, percent of E6 wild type [4] [%] | bound AurB, percent of E6 wild type [5] [%] |
| --- | --- | --- | --- | --- | --- |
| Flag-tagged Aurora kinase B (from UniProt Q96GD4 1-344) (enzyme) | 3 | – | – | – | – |
| B1 | – | 27 | 57 | 44 | 45 |
